Numbering of substitutions follows the chain as printed. No end group written: not given here.
Experiments:
[1] = target: T1, human Lyn (residues 62-122) SH3 domain-GST fusion protein (human, UniProt P07948 62-122); assay: fluorescence polarization, 50 nM labeled peptide, SH3-GST titrated
T1 construct: range 62-122; also called Lyn SH3

[2] = target: T2, human Lck (residues 62-128) SH3 domain-GST fusion (human, UniProt P06239 62-128); assay: as above
T2 construct: range 62-128; also called Lck SH3
T2 sequence (P06239 62-128): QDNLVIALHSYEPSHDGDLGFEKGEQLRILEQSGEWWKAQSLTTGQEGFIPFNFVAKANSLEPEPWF

[3] = target: T3, human Fyn (residues 81-142) SH3 domain-GST fusion protein (human, UniProt P06241 81-142); assay: as above
T3 construct: range 81-142; also called Fyn SH3
T3 sequence (P06241 81-142): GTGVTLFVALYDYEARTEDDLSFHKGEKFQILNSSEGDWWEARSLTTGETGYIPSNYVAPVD

[4] = target: T4, human Hck (residues 77-137 of full-length kinase) SH3 domain-GST fusion protein (human, UniProt P08631 77-137); assay: as above
T4 construct: range 77-137; also called Hck SH3
T4 sequence (P08631 77-137): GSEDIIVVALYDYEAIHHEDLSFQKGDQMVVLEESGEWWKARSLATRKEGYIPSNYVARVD

[5] = target: T1, human Lyn (residues 62-122) SH3 …; assay: fluorescence polarization, 50 nM labeled peptide, SH3-GST titrated; data above 50 micromolar target excluded from the fit
[6] = target: T4, human Hck (residues 77-137 of …); assay: as above
[7] = target: the molecule itself; assay: sedimentation equilibrium AUC, self-association (dimer), 25 C
[8] = target: the molecule itself; assay: sedimentation equilibrium AUC, self-association, monomer-n-mer fit, 25 C
[9] = target: the molecule itself; assay: sedimentation equilibrium AUC, self-association (tetramer), 25 C
[10] = target: the molecule itself; assay: AUC, self-association, monomer/dimer/tetramer model, dimer term, 25 C; dimer term of the monomer/dimer/tetramer model, 25 C

T1 sequence (P07948 62-122): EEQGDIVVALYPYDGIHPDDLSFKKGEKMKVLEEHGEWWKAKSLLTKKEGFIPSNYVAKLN

B1: PP2^Flu (designed binder)
chain: APPLPPRNRGDDAPVEDLIRFYDNLQQYLNVVTRHRYC
modifications: ends and bridges not checked; also: fluorescently labeled, site and dye not given here
notes: also called PP2 (fluorescently labeled)
[1]
  Kd: 3700 nM
[2]
  Kd: 2700 nM
[3]
  Kd: 14000 nM
[4]
  Kd: 1300 nM

B2: PP1^Flu (designed binder)
chain: B1 chain with R9P
modifications: ends and bridges not checked; also: fluorescently labeled, site and dye not given here
notes: also called PP1 (fluorescently labeled)
[1]
  Kd: 4900 nM
[2]
  Kd: 40000 nM
[3]
  Kd: 25000 nM
[4]
  Kd: 3800 nM

B3: PP3^Flu (designed binder)
chain: B1 chain with G10P, D11R
modifications: ends and bridges not checked; also: fluorescently labeled, site and dye not given here
notes: also called PP3 (fluorescently labeled)
[2]
  Kd: 1430 nM
[3]
  Kd: 2100 nM
[5]
  Kd: 1800 nM
[6]
  Kd: 880 nM

B4: aPP^Y21A (peptide)
chain: GPSQPTYPGDDAPVEDLIRFADNLQQYLNVVTRHRY-NH2
notes: Synthetic aPP variant; entries are for its self-association (dimer)
[7]
  Kd: 1300 nM
[8]
  lnKA (n = 2): 13.6

B5: aPP^Y7AT6E (peptide)
chain: GPSQPEAPGDDAPVEDLIRFYDNLQQYLNVVTRHRY-NH2
notes: entries are for its self-association (tetramer); also called aPP^Y7AAT6E
[9]
  Kd: 0.0002 nM
[8]
  lnKA (n = 4): 29.3

B6: aPP^Y7AQ25R (peptide)
chain: GPSQPTAPGDDAPVEDLIRFYDNLRQYLNVVTRHRY-NH2
notes: Synthetic aPP variant; entries are for its self-association (tetramer)
[9]
  Kd: 0.00018 nM
[8]
  lnKA (n = 4): 29.3

B7: aPP^Y7AP13VV14P (peptide)
chain: GPSQPTAPGDDAVPEDLIRFYDNLQQYLNVVTRHRY-NH2
notes: Synthetic aPP variant; entries are for its self-association (tetramer); also called aPP^Y7AP13W14P
[9]
  Kd: 0.00075 nM
[8]
  lnKA (n = 4): 27.9

B8: aPP^Y7AP13SV14P (peptide)
chain: GPSQPTAPGDDASPEDLIRFYDNLQQYLNVVTRHRY-NH2
notes: Synthetic aPP variant with the proline switch; entries are for its self-association (monomer/dimer/tetramer)
[10]
  Kd: 530000 nM

B9: avian pancreatic polypeptide (aPP) (peptide)
chain: GPSQPTYPGDDAPVEDLIRFYDNLQQYLNVVTRHRY
modifications: ends and bridges not checked
notes: Bought from American Peptide Company; entries are for its self-association (dimer); also called wt aPP
[7]
  Kd: 4100 nM
[8]
  lnKA (n = 2): 12.4

B10: pancreatic peptide YY (PYY) (peptide)
chain: not shown
modifications: C-terminal carboxamide
notes: Synthetic; entries are for its self-association
[7]
  Kd: 830000 nM
[8]
  lnKA (n = 2): 7.09

B11: aPP^Y7A (peptide)
chain: GPSQPTAPGDDAPVEDLIRFYDNLQQYLNVVTRHRY-NH2
notes: as for B6
[9]
  Kd: 0.0039 nM
[8]
  lnKA (n = 4): 26.3

B12: aPP^F20A (peptide)
chain: GPSQPTYPGDDAPVEDLIRAYDNLQQYLNVVTRHRY-NH2
notes: as for B6
[9]
  Kd: 0.076 nM
[8]
  lnKA (n = 4): 23.3

Source: patent US20100273722A1 (YALE UNIVERSITY, published 2010)
